Reference: patent publication US20170056486A1

Experiments:
HLA-A*24 (human) [1] = test: UV-exchange ELISA (anti-b2m); yield >=75%
HLA-A*24 (human) [2] = test: UV-exchange ELISA (anti-b2m); yield 50%-75%

Binder: AFADVSVKF
- peptide exchange yield (HLA-A*24 (human) [1]): > 75%

Binder: QYLVHVNDL
- peptide exchange yield (HLA-A*24 (human) [1]): > 75%

Binder: KYTDYILKI
- peptide exchange yield (HLA-A*24 (human) [2]): 50 to 75%

Binder: AYAANVHYL
- peptide exchange yield (HLA-A*24 (human) [1]): > 75%

Binder: TFSDVEAHF
- peptide exchange yield (HLA-A*24 (human) [2]): 50 to 75%

Binder: KYQNVKHNL
- peptide exchange yield (HLA-A*24 (human) [2]): 50 to 75%

Binder: VYPFDWQYI
- peptide exchange yield (HLA-A*24 (human) [1]): > 75%

Binder: VYNEQIRDLL
- peptide exchange yield (HLA-A*24 (human) [2]): 50 to 75%

Binder: RYPALFPVL
- peptide exchange yield (HLA-A*24 (human) [1]): > 75%

Binder: NYLDVATFL
- peptide exchange yield (HLA-A*24 (human) [1]): > 75%

Binder: AYAQLGYLLF
- peptide exchange yield (HLA-A*24 (human) [1]): > 75%

Binder: TYTFLKETF
- peptide exchange yield (HLA-A*24 (human) [1]): > 75%

Binder: YYTQYSQTI
- peptide exchange yield (HLA-A*24 (human) [1]): > 75%

Binder: TYGKIDLGF
- peptide exchange yield (HLA-A*24 (human) [2]): 50 to 75%

Binder: KYIDYLMTW
- peptide exchange yield (HLA-A*24 (human) [1]): > 75%

Binder: SYGTVSQI
- peptide exchange yield (HLA-A*24 (human) [1]): > 75%

Binder: VYVIEPHSMEF
- peptide exchange yield (HLA-A*24 (human) [2]): 50 to 75%

Binder: EYLHNCSYF
- peptide exchange yield (HLA-A*24 (human) [1]): > 75%

Binder: IYLEHTESI
- peptide exchange yield (HLA-A*24 (human) [2]): 50 to 75%

Binder: IYGEKTYAF
- peptide exchange yield (HLA-A*24 (human) [2]): 50 to 75%

Binder: RFIGIPNQF
- peptide exchange yield (HLA-A*24 (human) [2]): 50 to 75%

Binder: GYIEHFSLW
- peptide exchange yield (HLA-A*24 (human) [1]): > 75%

Binder: TFITQSPLL
- peptide exchange yield (HLA-A*24 (human) [1]): > 75%

Binder: QYILAVPVL
- peptide exchange yield (HLA-A*24 (human) [1]): > 75%

Binder: VFKSEGAYF
- peptide exchange yield (HLA-A*24 (human) [1]): > 75%

Binder: LFITGGQFF
- peptide exchange yield (HLA-A*24 (human) [1]): > 75%

Binder: KYPASSSVF
- peptide exchange yield (HLA-A*24 (human) [2]): 50 to 75%

Binder: RYKPGEPITF
- peptide exchange yield (HLA-A*24 (human) [2]): 50 to 75%

Binder: YYSEVPVKL
- peptide exchange yield (HLA-A*24 (human) [2]): 50 to 75%

Binder: VYAEVNSL
- peptide exchange yield (HLA-A*24 (human) [2]): 50 to 75%

Binder: GYISNGELF
- peptide exchange yield (HLA-A*24 (human) [2]): 50 to 75%

Binder: TYADIGGLDNQI
- peptide exchange yield (HLA-A*24 (human) [2]): 50 to 75%

Binder: FYTLPFHLI
- peptide exchange yield (HLA-A*24 (human) [1]): > 75%

Binder: IYKWITDNF
- peptide exchange yield (HLA-A*24 (human) [1]): > 75%

Binder: QYSIISNVF
- peptide exchange yield (HLA-A*24 (human) [2]): 50 to 75%

Binder: VYTPVASRQSL
- peptide exchange yield (HLA-A*24 (human) [2]): 50 to 75%

Binder: AYLPPLQQVF
- peptide exchange yield (HLA-A*24 (human) [2]): 50 to 75%

Binder: RYLINSYDF
- peptide exchange yield (HLA-A*24 (human) [1]): > 75%

Binder: IYISNSIYF
- peptide exchange yield (HLA-A*24 (human) [1]): > 75%

Binder: IYAGVGEFSF
- peptide exchange yield (HLA-A*24 (human) [1]): > 75%

Binder: VFASLPGFLF
- peptide exchange yield (HLA-A*24 (human) [1]): > 75%

Binder: VFSPDGHLF
- peptide exchange yield (HLA-A*24 (human) [2]): 50 to 75%

Binder: QYLDGTWSL
- peptide exchange yield (HLA-A*24 (human) [1]): > 75%

Binder: QYLEKYYNL
- peptide exchange yield (HLA-A*24 (human) [1]): > 75%

Binder: VYGVPTPHF
- peptide exchange yield (HLA-A*24 (human) [1]): > 75%

Binder: EYNSDLHQFF
- peptide exchange yield (HLA-A*24 (human) [2]): 50 to 75%

Binder: KYGNFIDKL
- peptide exchange yield (HLA-A*24 (human) [2]): 50 to 75%

Binder: TYLEKIDGF
- peptide exchange yield (HLA-A*24 (human) [1]): > 75%

Binder: SYGTVSQIF
- peptide exchange yield (HLA-A*24 (human) [1]): > 75%

Binder: YYMELTKLLL
- peptide exchange yield (HLA-A*24 (human) [1]): > 75%

Binder: KYIGNLDLL
- peptide exchange yield (HLA-A*24 (human) [1]): > 75%

Binder: VFTTSSNIF
- peptide exchange yield (HLA-A*24 (human) [1]): > 75%

Binder: RYFDVGLHNF
- peptide exchange yield (HLA-A*24 (human) [2]): 50 to 75%

Binder: KYLNENQLSQL
- peptide exchange yield (HLA-A*24 (human) [2]): 50 to 75%

Binder: VYVPFGGKSMITF
- peptide exchange yield (HLA-A*24 (human) [1]): > 75%

Binder: AFIETPIPLF
- peptide exchange yield (HLA-A*24 (human) [1]): > 75%

Binder: IFHEVPLKF
- peptide exchange yield (HLA-A*24 (human) [2]): 50 to 75%

Binder: SYLTWHQQI
- peptide exchange yield (HLA-A*24 (human) [1]): > 75%

Binder: IFTDIFHYL
- peptide exchange yield (HLA-A*24 (human) [1]): > 75%

Binder: VYTHEVVTL
- peptide exchange yield (HLA-A*24 (human) [2]): 50 to 75%

Binder: AYVIAVHLF
- peptide exchange yield (HLA-A*24 (human) [1]): > 75%

Binder: VYEAMVPLF
- peptide exchange yield (HLA-A*24 (human) [1]): > 75%

Binder: QYTPHSHQF
- peptide exchange yield (HLA-A*24 (human) [2]): 50 to 75%

Binder: QYGGDLTNTF
- peptide exchange yield (HLA-A*24 (human) [2]): 50 to 75%

Binder: KYTEKLEEI
- peptide exchange yield (HLA-A*24 (human) [2]): 50 to 75%

Binder: QYPFHVPLL
- peptide exchange yield (HLA-A*24 (human) [1]): > 75%

Binder: IYVTGGHLF
- peptide exchange yield (HLA-A*24 (human) [2]): 50 to 75%

Binder: SYSEIKDFL
- peptide exchange yield (HLA-A*24 (human) [1]): > 75%

Binder: RYLTISNLQF
- peptide exchange yield (HLA-A*24 (human) [1]): > 75%

Binder: VFIFKGNEF
- peptide exchange yield (HLA-A*24 (human) [1]): > 75%

Binder: QYIEELQKF
- peptide exchange yield (HLA-A*24 (human) [2]): 50 to 75%

Binder: VYIAELEKI
- peptide exchange yield (HLA-A*24 (human) [2]): 50 to 75%

Binder: GYIRGSWQF
- peptide exchange yield (HLA-A*24 (human) [1]): > 75%

Binder: QYLELAHSL
- peptide exchange yield (HLA-A*24 (human) [2]): 50 to 75%

Binder: IYSVGAFENF
- peptide exchange yield (HLA-A*24 (human) [1]): > 75%
